From publication PMC9939298

B1: AmUGT13 (Astragalus mongholicus) (protein)
chain: MEREAENRPLKLYFLPFLAAGHMIPLCDIAMLFASRGQDVTVITTPSNAETLLKRKSNNHLHIHTVDIPSDSPQIENITSATNIDSAISVYTAAMLLRQPVEQFLRENPPDCIVADFMYQWVSEIANTLQIPRLAFNGFPLFAVCAMNSFSAHPELFSGSVSEPFNLPDLPHPITMHARSPEGIFRFYEALLKMEVESHGLIVNSFVEIESEYVEHYERTTGHKAWHLGPASLVHASNQQKSERGHISVVSENDCVSWLNSKQPNSVVYISFGSTCRFSDNQLYEIAAGVEASGHPFIWVVLEKLEEKGSKGWLPEGFEERMKEKGMIIRGWAPQVLILDHPAIGGFLTHCGWNSVVEGVSAGVPMMTWPVQADQFYNEKLITEVQGNGVEVGAVEWGVSGYGERKIVISREKIEKAVRRVMDGGDEAEEIRRRARQLAVKAKEAVREGGSSHRNLRELIRDLKLLRDSRSAN
B2: AmUGT7 (Astragalus mongholicus) (protein)
chain: MESQQSHEQLNVTFLPYPTPGHMIPMIDTARLFAKHGATVTIITTHANASTFQKHIDSDISLGYPIKTQLIQFPAAQVGLPDGVENVKDGSSLELLGKISQGIFLLQGQIELLFQHLQPDCIVTDMMYPWTVESAAKLGIPRLHYYSTSYFSNCASYFVRKYRPHDSLDSDDQKFTVPCLPISIEMTPLQLPEWIRTKNPSTGGFFEAMYESEKNSYGTLYNSFHELESDYEQLNKTTMGIKSWSVGPVSAWANKDDEKKANRGHMGESGKELEWLNWLNSKQNDSVLYVSFGSLTRLPNAQLLEIAHGLEISGHNFIWVIRKNDRDEDGDNFLQEFEQRMKESKKGYIIWNWAPQLLILDQPAVGGIVTHCGWNSILESINAGLPMIAWPMFAEQFYNERLLVDVLKIGVPVGVKENKYWFNIGEETLVRREEIMKAVVLLMGSSQESKEMRLKAKKLADASKRTIEEGGHSYNNLLQLIDELKSLKISRELDKSRLDN

Columns and labels:
purified protein [1] = substrate: O=c1ccn([C@@H]2O[C@H](CO[P@@](=O)(O)O[P@@](=O)(O)O[C@H]3O[C@H](CO)[C@@H](O)[C@H](O)[C@H]3O)[C@@H](O)[C@H]2O)c(=O)[nH]1; assay: purified protein; details: details in supplement Table S2
purified protein [2] = substrate: O=c1ccn([C@@H]2O[C@H](COP(=O)(O)OP(=O)(O)O[C@H]3OC[C@@H](O)[C@H](O)[C@H]3O)[C@@H](O)[C@H]2O)c(=O)[nH]1; assay: purified protein; details: acceptor astragaloside III (5); details in supplement Table S2

Protein | Km (purified protein [1]; acceptor astragaloside III (5)) | Km (purified protein [2]) | Km (purified protein [1]; acceptor cycloastragenol-3-O-β-D-xyloside (2))
B1 | 414.7 µM | 479.6 µM | 
B2 |  |  | 74.8 µM
